No end group written: not given here. *: point of attachment. MTSSL = spin label (R1), CC1(C)C=C(CS*)C(C)(C)N1[O]
T1: p15 fragment of Caspase-8-cleaved mouse Bid (tBid) (Mus musculus (Mouse), UniProt P70444)
T1 chain: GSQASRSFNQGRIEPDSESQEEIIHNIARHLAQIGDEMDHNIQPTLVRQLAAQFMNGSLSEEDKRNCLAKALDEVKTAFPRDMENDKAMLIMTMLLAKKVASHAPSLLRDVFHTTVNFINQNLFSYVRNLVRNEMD

T2: p15 fragment of spin labeled cleaved mouse Bid (cBidR1), MTSSL on C126 (Mus musculus (Mouse), UniProt P70444, MTSSL spin label (R1) on C126)
T2 chain: T1 chain

B1: p7 fragment of Caspase-8-cleaved mouse Bid (protein)
chain: MDSEVSNGSGLGAEHITDLLVFGFLQSSGCTRQELEVLGRELPVQAYWEADLEDELQTD
B2: p7 fragment of spin labeled cleaved mouse Bid (cBidR1), MTSSL on C30 (protein)
chain: MDSEVSNGSGLGAEHITDLLVFGFLQSSGC(MTSSL)TRQELEVLGRELPVQAYWEADLEDELQTD

Key:
[1] = biological target: T1, p15 fragment of Caspase-8-cleaved mouse …; assay: SEC co-elution as 20 kDa complex, with SDS-PAGE and CD melting; no detergent; detergent (DDM/OG) dissociates the fragments, cardiolipin liposomes only partly
[2] = biological target: T2, p15 fragment of spin labeled cleaved …; assay: DEER EPR (also cw EPR; Trp/Tyr fluorescence at 0.5 uM); no detergent; MTSSL on C30 and C126; 2% OG or 2% DDM dissociates (reversed by OG removal), cardiolipin liposomes only partly

| Binder | binding result [1] | binding result [2] |
| --- | --- | --- |
| B1 | binds | – |
| B2 | – | binds |

From PMC3335097 (2012)
